Source: patent US20200055939A1 (Genentech, published 2020)

T1: P296A
T1 construct: % monomer 92.3; also called MICA*008.mIgG2a P296A
T1 chain: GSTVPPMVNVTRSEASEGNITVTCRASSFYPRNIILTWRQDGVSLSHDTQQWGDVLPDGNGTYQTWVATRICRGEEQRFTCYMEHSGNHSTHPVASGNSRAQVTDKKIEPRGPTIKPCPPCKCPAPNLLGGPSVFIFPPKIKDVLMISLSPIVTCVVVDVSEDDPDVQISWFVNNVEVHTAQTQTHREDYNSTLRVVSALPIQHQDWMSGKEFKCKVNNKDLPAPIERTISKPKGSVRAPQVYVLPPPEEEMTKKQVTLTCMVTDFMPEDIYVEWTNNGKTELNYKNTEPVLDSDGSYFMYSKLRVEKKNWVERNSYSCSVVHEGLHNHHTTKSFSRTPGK

T2: Q278A
T2 construct: % monomer 92.32; also called MICA*008.mIgG2a Q278A
T2 chain: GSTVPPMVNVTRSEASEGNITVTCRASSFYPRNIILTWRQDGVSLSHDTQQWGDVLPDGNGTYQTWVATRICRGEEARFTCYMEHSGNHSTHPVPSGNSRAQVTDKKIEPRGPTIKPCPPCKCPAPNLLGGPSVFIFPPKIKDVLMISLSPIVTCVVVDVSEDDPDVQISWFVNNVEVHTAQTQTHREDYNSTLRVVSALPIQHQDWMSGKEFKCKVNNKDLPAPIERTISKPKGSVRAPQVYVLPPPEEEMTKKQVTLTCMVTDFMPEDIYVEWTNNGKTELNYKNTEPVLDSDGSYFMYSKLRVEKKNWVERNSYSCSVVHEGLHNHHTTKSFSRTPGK

T3: G275A
T3 construct: % monomer 98.9; also called MICA*008.mIgG2a G275A
T3 chain: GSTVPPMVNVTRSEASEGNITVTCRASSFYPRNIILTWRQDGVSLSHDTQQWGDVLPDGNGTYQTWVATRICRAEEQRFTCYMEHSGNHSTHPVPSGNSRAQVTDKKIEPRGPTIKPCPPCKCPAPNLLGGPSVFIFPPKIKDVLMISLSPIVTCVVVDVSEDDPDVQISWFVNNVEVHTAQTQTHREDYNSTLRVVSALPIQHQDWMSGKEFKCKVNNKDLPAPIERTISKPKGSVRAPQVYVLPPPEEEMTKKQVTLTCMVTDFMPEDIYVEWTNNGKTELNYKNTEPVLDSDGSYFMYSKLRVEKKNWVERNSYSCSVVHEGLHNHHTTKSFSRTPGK

T4: V244A
T4 construct: % monomer 97.6; also called MICA*008.mIgG2a V244A
T4 chain: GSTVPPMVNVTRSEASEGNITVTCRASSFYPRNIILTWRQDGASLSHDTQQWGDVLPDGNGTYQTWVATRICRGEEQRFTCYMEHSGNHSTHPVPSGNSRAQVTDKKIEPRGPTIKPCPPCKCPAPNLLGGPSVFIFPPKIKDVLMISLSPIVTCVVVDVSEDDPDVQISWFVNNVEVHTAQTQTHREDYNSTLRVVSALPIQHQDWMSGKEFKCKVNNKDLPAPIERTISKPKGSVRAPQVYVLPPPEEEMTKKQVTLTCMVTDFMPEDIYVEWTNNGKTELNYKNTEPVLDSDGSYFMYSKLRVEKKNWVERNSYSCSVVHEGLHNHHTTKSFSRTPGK

T5: R240A
T5 construct: % monomer 93.8; also called MICA*008.mIgG2a R240A
T5 chain: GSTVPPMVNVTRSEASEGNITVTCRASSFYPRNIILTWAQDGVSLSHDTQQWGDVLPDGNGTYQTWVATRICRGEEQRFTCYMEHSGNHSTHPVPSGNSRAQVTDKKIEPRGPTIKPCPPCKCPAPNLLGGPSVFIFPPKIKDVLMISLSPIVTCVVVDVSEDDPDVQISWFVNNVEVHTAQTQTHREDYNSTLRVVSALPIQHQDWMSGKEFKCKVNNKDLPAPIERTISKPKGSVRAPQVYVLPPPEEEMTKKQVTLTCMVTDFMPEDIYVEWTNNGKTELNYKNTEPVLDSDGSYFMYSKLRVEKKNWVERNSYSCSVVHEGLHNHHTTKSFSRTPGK

T6: Y283A
T6 construct: % monomer 92.7; also called MICA*008.mIgG2a Y283A
T6 chain: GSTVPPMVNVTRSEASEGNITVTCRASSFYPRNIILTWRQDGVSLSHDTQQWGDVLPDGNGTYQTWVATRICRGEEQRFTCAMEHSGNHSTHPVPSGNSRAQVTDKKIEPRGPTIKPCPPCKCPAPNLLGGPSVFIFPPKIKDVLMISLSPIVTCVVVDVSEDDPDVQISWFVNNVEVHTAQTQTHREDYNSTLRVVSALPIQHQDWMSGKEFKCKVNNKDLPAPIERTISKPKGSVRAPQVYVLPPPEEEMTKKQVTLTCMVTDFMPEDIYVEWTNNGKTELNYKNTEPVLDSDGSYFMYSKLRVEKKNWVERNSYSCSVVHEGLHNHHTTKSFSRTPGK


Key:
Experiment in all cases: SPR, Fab over captured MICA*008.mIgG2a Ala variant; KD relative to wild type
P296A = biological target: T1, P296A
Q278A = biological target: T2, Q278A
G275A = biological target: T3, G275A
V244A = biological target: T4, V244A
R240A = biological target: T5, R240A
Y283A = biological target: T6, Y283A

Row | Binder | fold-decrease in affinity (P296A) | fold-decrease in affinity (Q278A) | fold-decrease in affinity (G275A) | fold-decrease in affinity (V244A) | fold-decrease in affinity (R240A) | fold-decrease in affinity (Y283A)
1 | 1D5 Fab (Fab, V domains shown, Expressed in E. coli as chimera of murine variable and human constant domains; not shown: human IgG1 CH1 constant domain; human kappa CL constant domain) VH: EIQLQQSGPELVKPGASVKVSCKASGYAFTSQNIYWVKQSHGKSLEWIGYIEPYNVVPMYNPKFKGKATLTVDKSSSSAYIHLNSLTSEDSAIYYCARSGSSNFDYWGQGTTLTVSS VL: EIILTQSPTTMAASPGEKITITCSASSSISSHYLHWYQQKSGFSPKLLIYRTSNLASGVPARFSGSGSGTSYSLTIGTMEAEDVATYYCQQGSSLPLTFGAGTKVEIK | 1.9 | 0.7 |  |  |  | 
2 | 2E5.2.3 Fab (Fab, V domains shown) VH: QGQMQQSGAELVKPGASVKLSCKTSGFTFSDNYISWLKQKPGQSLEWIAWIYAGTGGTSYNQKFTAKAQLTVDTSSSTAYMQFSSLTTEDSAIYYCARHDYYGTSGAWFAYWGQGTLVTVSA VL: DVLMTQTPLSLPVSLGDQASLSCRSSQNIVHINGNTYLEWYLQKPGQSPKLLIYKVSNRFSGVPDRFSGSGSGTDFTLKISRVEAEDLGVYYCFQGSHVPWTFGGGTKVEIK | 0.6 | 1 | 1 | 1 | 1 | 0.2
3 | 6F8.7 Fab (Fab, V domains shown) VH: DVQLQGSGPGLVKPSQSLSLTCSVTGYSITNDYYWNWIRQFPGNKLEWMGFISFGGSNNYNPSLKNRISITRDTSKNQFFLKLSSVTTEDTATYYCARYDGRGAWFAYWAQGTLVTVSA VL: DIQMTQSPASLSASVGETVTITCRASGNIHNYLAWYQQKQGKSPQLLVYDAITLADGVPSRFSGSGSGTQYSLKINSLQPEDFGNYYCQHFWSFPLTFGAGTKVEIK | 1 | 0.5 | 4.6 |  | 4.5 | 1.7
4 | 7D4.6 Fab (Fab, V domains shown) VH: DVQLQESGPGLVKPSQSLSLTCTVTGYSITSDYAWNWIRQFPRNKLEWMGYINYSGTTNYNPSLKSRISITRDTSKNQFFLQLISVTTEDTATYYCSYYRYDGAWFPYWGQGTLVTVSA VL: DIQMTQSPASLSASVGETVTITCRASGNIHNYLAWYQQKQGKSPQLLVYNAIMLADGVPSRFSASGSGTQYSLKINSLQPEDFGSYYCQHFWSFPLTFGAGTKVEIK | 0.7 | 4.9 |  |  |  | 
